Measured values as given in patent US20210213134A1, “THIOL-BASED MULTIVALENT DRUG DELIVERY COMPOSITIONS” (ORPRO THERAPEUTICS, INC., priority 2018, published 2021).
Read-outs that look alike come from different tables or passages of the source. One block for each binder: values may come before it.

Columns and labels:
[1] = target: insulin (fully disulfide-bonded heterodimeric insulin); assay: cell-based or functional assay
[2] = target: insulin (fully disulfide-bonded heterodimeric insulin); assay: cell-based or functional assay; remark: listed apart in the source

% reduction C35STRX (insulin heterodimer peak, RP-HPLC), 90 min [1]: 97.7%
column 'C35STRX' (taken as insulin heterodimer peak area, RP-HPLC), 0 min [1]: 10600
column 'C35STRX' (taken as insulin heterodimer peak area, RP-HPLC), 90 min [1]: 243
% reduction C35STRX (insulin heterodimer peak, RP-HPLC), 0 min [2]: 0%
% reduction C35STRX (insulin heterodimer peak, RP-HPLC), 90 min [2]: 99.4%
column 'C35STRX' (taken as insulin heterodimer peak area, RP-HPLC), 0 min [2]: 8520
column 'C35STRX' (taken as insulin heterodimer peak area, RP-HPLC), 90 min [2]: 50.2
B1: reduced (active) C35STRX (enzyme)
chain: MVKQIESKTAFQEALDAAGDKLVVVDFSATWCGPSKMIKPFFHSLSEKYSNVIFLEVDVDDCQDVASECEVKCMPTFQFFKKGQKVGEFSGANKEKLEATINELV
modifications: active site Cys32 in the reduced state

% reduction Azido-C35STRX (insulin heterodimer peak, RP-HPLC), 0 min [1]: 0%
% reduction Azido-C35STRX (insulin heterodimer peak, RP-HPLC), 90 min [1]: 33.1%
column 'Azido-C35STRX' (taken as insulin heterodimer peak area, RP-HPLC), 0 min [1]: 10200
column 'Azido-C35STRX' (taken as insulin heterodimer peak area, RP-HPLC), 90 min [1]: 6840
% reduction Azido-C35STRX (insulin heterodimer peak, RP-HPLC), 90 min [2]: 32.7%
attenuation of the ability to reduce insulin disulfides vs. unconjugated monocysteinic thioredoxin [2]: 70%
column 'Azido-C35STRX' (taken as insulin heterodimer peak area, RP-HPLC), 0 min [2]: 8960
column 'Azido-C35STRX' (taken as insulin heterodimer peak area, RP-HPLC), 90 min [2]: 6030
B2: Azido-C35STRX (C35STRX with azido-PEG linkers on Lys residues, reduced) (enzyme)
chain: B1 chain
modifications: azido-PEG chains (NHS-PEG4-Azide) on Lys residues, average of 11 per molecule; active site Cys reduced with DTT
